We go through 26 molecules from US20110301335A1 (published 2011).

Assay [1] addresses human TNFR1 (R&D systems, cat no. 636-R1/CF) (human) (UniProt P19438). Briefly: BIAcore sequential injection on biotinylated human TNFR1; competitor DOM1h-574-16. For orientation: SPR reads the build-up and loss of mass on a sensor chip optically.
Assay [2] has as its target T1, human TNFR1 on MRC-5 cells (human, UniProt P19438 30-455).
T1 sequence (looked up): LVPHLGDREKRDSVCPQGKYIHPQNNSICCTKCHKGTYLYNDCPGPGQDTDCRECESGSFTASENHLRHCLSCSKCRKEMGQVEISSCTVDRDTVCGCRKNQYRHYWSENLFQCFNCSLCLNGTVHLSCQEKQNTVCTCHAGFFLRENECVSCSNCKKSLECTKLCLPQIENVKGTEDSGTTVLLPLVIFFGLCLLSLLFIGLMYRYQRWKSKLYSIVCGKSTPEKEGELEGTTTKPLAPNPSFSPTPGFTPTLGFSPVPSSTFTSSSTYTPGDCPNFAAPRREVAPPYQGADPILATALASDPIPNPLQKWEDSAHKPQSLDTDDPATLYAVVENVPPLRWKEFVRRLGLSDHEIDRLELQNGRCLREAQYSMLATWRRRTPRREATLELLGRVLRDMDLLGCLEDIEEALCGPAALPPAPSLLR
As to the kind of experiment: cell-based or functional assay.

Assay [3] concerns the target T1, human TNFR1 on MRC-5 cells. As to the kind of experiment: cell-based or functional assay. This is another data set of the same source.
For assay [4], the target named is T1, human TNFR1 on MRC-5 cells. As to the kind of experiment: cell-based or functional assay. This is another data set of the same source.
Assay [5] addresses T2, human TNFR1 (R&D systems, cat no. 636-R1/CF) (human, UniProt P19438 30-211, limits assumed, biotinylated with EZ-Link NHS-LC-LC-biotin where coated on streptavidin chips; amine-coupled in the Table 2 experiment).
T2 construct: bought soluble recombinant protein; also called hTNFR1; p55
T2 sequence (looked up): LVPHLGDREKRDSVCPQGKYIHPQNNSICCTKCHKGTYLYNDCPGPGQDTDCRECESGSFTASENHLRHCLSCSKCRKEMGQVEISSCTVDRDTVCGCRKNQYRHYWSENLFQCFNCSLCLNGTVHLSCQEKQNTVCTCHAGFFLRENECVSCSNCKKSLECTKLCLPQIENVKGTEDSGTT
Briefly: BIAcore screening of supernatants.

Assay [6] addresses mouse TNFR1 on L929 cells (mouse) (UniProt P25118). As to the kind of experiment: cell-based or functional assay.

Positions count from the first letter of the chain named. Like-named read-outs stand apart in the source and are kept apart here.

mouse TNFR1 on L929 cells (mouse), sequence (P25118 30-454): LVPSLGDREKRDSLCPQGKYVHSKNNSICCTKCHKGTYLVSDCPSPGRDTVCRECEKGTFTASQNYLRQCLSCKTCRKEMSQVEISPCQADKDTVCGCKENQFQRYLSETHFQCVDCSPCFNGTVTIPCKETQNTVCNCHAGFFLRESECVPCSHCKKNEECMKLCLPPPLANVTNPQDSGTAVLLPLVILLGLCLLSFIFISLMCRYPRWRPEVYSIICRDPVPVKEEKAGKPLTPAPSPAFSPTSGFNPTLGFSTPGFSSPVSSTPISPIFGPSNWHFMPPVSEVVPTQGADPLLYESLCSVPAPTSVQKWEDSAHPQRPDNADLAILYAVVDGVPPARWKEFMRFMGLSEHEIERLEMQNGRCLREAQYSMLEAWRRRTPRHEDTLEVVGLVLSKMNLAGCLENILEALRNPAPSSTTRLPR

“mAb Clone 4.12 (Invitrogen, cat. no. Zymed 33-0100) (antibody)” returned a percent less binding after DOM1h-574-16 in assay [1] of 20%.

B1: DMS0124 (bispecific antibody)
chain: EVQLLESGGGLVQPGGSLRLSCAASGFTFVKYSMGWVRQAPGKGLEWVSQISNTADRTYYAHSVKGRFTISRDNSKNTLYLQMNSLRAEDTAVYYCAIYTGRWVPFEYWGQGTLVTVSSASGGGGSGGGGSGGGGSDIQMTQSPSSLSASVGDRVTITCRASQWIGSQLSWYQQKPGKAPKLLIMWRSSLQSGVPSRFSGSGSGTDFTLTISSLQPEDFATYYCAQGLMKPMTFGQGTKVEIKR
In the case of B1, in assay [2], the MRC5 (ND50 in nM) was 1.9 nM.

B2: DMS0115 (bispecific antibody)
chain: EVQLLESGGGLVQPGGSLRLSCAASGFTFVKYSMGWVRQAPGKGLEWVSQISNTADRTYYAHSVKGRFTISRDNSKNTLYLQMNSLRAEDTAVYYCAIYTGRWVPFEYWGQGTLVTVSSASTSGPSDIQMTQSPSSLSASVGDRVTITCRASRPIGTTLSWYQQKPGKAPKLLILWNSRLQSGVPSRFSGSGSGTDFTLTISSLQPEDFATYYCAQAGTHPTTFGQGTKVEIKR
B2 yielded an MRC5 (ND50 in nM) in assay [2] of 1.7 nM.

B3: DMS0116 (bispecific antibody)
chain: B2 chain with T158M, W176F, N177G
In assay [2], B3 displayed an MRC5 (ND50 in nM) of 1.7 nM.

B4: DMS0121 (bispecific antibody)
chain: EVQLLESGGGLVQPGGSLRLSCAASGFTFVKYSMGWVRQAPGKGLEWVSQISNTADRTYYAHSVKGRFTISRDNSKNTLYLQMNSLRAEDTAVYYCAIYTGRWVPFEYWGQGTLVTVSSASGGGGSGGGGSGGGGSDIQMTQSPSSLSASVGDRVTITCRASRPIGTTLSWYQQKPGKAPKLLILWNSRLQSGVPSRFSGSGSGTDFTLTISSLQPEDFATYYCAQAGTHPTTFGQGTKVEIKR
For B4, the MRC5 (ND50 in nM) in assay [2] worked out at 1.8 nM.

B5: DMS0118 (bispecific antibody)
chain: EVQLLESGGGLVQPGGSLRLSCAASGFTFVKYSMGWVRQAPGKGLEWVSQISNTADRTYYAHSVKGRFTISRDNSKNTLYLQMNSLRAEDTAVYYCAIYTGRWVPFEYWGQGTLVTVSSASTSGPSDIQMTQSPSSLSASVGDRVTITCRASQWIGSQLSWYQQKPGKAPKLLIMWRSSLQSGVPSRFSGSGSGTDFTLTISSLQPEDFATYYCAQGLMKPMTFGQGTKVEIKR
With B5, in assay [2], the MRC5 (ND50 in nM) amounted to 1.4 nM.

B6: DOM1h-574 (other)
VH: EVQLLESGGGLVQPGGSLRLSCAASGFTFVKYSMGWVRQAPGKGLEWVSQISNTGGHTYYADSVKGRFTISRDNSKNTLYLQMNSLRAEDTAVYYCAKYTGRWEPFDYWGQGTLVTVSS
For the molecule B6, in assay [3], the “MRC-5 EC50, fold of the EC50 of DOM1h-574-16” value was approximately 200 fold.

B7: DMS0114 (bispecific antibody, V domains shown)
VH: B6 VH with G55A, G56D, H57R, D62H, K98I, E104R, D107E
In the case of B7, the “MRC5 (ND50 in nM)” value in assay [4] amounted to 3.7 nM.

B8: DMS0117 (bispecific antibody, V domains shown)
VH: B6 VH with N53D, G56D, H57R, T58R, A61D, K98I, E104K, D107E
For B8, the “MRC5 (ND50 in nM)” value in assay [4] was found to be 25.9 nM.

B9: DMS0122 (bispecific antibody, V domains shown)
VH: B6 VH with N53D, G56D, H57R, T58R, A61D, K98I, E104A, D107E
Take B9: in assay [4], the “MRC5 (ND50 in nM)” value turned out to be 1.5 nM.

B10: DOM1h-574-19 (other)
VH: B6 VH with V30G, G44D, G56D, K98I
Consider B10, for which the “MRC-5 EC50” value in assay [3] was found to be 140 nM.

B11: DOM1h-574-12 (other)
VH: B6 VH with G56D
For the molecule B11, in assay [3], the “MRC-5 EC50” value was 130 nM.

B12: DOM1h-574-17 (other)
VH: B6 VH with L45P, G56D, K98I
As to B12, in assay [3], the “MRC-5 EC50” value came to 20 nM.

B13: DOM1h-574-13 (other)
VH: B6 VH with G56D, H57R
Turning to B13, the “MRC-5 EC50” value in assay [3] came to 300 nM.

B14: DOM1h-574-10 (other)
VH: B6 VH with V30G, G44D, K98I
notes: anti-TNFR1 dAb (VH) from error-prone test maturation; expressed from pDOM5 (myc tag not included here)
As for B14, the binding result in assay [5] is “binds”.

B15: DOM1h-574-8 (other)
VH: B6 VH with L45P, K98I
With B15, the “MRC-5 EC50” value in assay [3] turned out to be 10 nM.

B16: DOM1h-574-16 (other)
VH: B6 VH with L45P, G56D, H57R, K98I
On to B16, for which, in assay [3], the “MRC-5 EC50” value was 8 nM.

B17: DOM1h-574-18 (other)
VH: B6 VH with V30G, G44D, G56D, H57R, K98I
On to B17, for which, in assay [3], the “MRC-5 EC50” value came to 17 nM.

B18: DOM1h-574-7 (other)
VH: B6 VH with K98I
notes: as for B14
B18: the binding result in assay [5] was “binds”.

B19: DOM1h-574-11 (other)
VH: B6 VH with Y108H
Take B19: the “MRC-5 EC50” value in assay [3] was 800 nM.

B20: DOM1h-574-15 (other)
VH: B6 VH with G56D, K98I
With B20, in assay [3], the “MRC-5 EC50” value was determined as 300 nM.

B21: DMS0112 (bispecific antibody)
chain: EVQLLESGGGLVQPGGSLRLSCAASGFTFVKYSMGWVRQAPGKGLEWVSQISNTADRTYYAHSVKGRFTISRDNSKNTLYLQMNSLRAEDTAVYYCAIYTGRWVPFEYWGQGTLVTVSSASTDIQMTQSPSSLSASVGDRVTITCRASRPIGTMLSWYQQKPGKAPKLLILFGSRLQSGVPSRFSGSGSGTDFTLTISSLQPEDFATYYCAQAGTHPTTFGQGTKVEIKR
In assay [2], B21 returned an MRC5 (ND50 in nM) of 1.3 nM.

B22: DMS0135 (bispecific antibody)
chain: B21 chain with V30F, N53D, A61S, M154T, F172W, G173N
Turning to B22, in assay [2], the MRC5 ND50 is 1.17 nM. In assay [6], this molecule showed an L929 ND50 of 5.9 nM.

B23: DMS0133 (bispecific antibody)
chain: B21 chain with V30F, N53D, V104A, M154T, F172W, G173N
Consider B23, for which the MRC5 ND50 in assay [2] is 0.99 nM. The molecule further showed an L929 ND50 in assay [6] of 4.2 nM.

B24: DMS0134 (bispecific antibody)
chain: B21 chain with V30F, N53D, M154T, F172W, G173N
Take B24: the MRC5 ND50 in assay [2] stood at 0.96 nM. In assay [6], this molecule showed an L929 ND50 of 6.52 nM.

B25: DMS0132 (bispecific antibody)
chain: B21 chain with N53D, M154T, F172W, G173N
In assay [2], B25 gave an MRC5 ND50 of 1.04 nM. Moreover, the L929 ND50 in assay [6] came to 6.8 nM.
